In assay [1] the target is ALK1-Fc ECD (Homo sapiens) (UniProt P37023). Conditions: cited from earlier work.
In assay [2] the target is ALK1-Fc (ALK1 extracellular domain-Fc fusion protein) (UniProt P37023). The assay is described as follows: SPR; Biacore T100; ALK1-Fc (800 RU) or ALK1 monomer (270 RU) amine-coupled to a CM5 chip; ligands injected at 30 μl min^-1 in 0.01 M HEPES pH 7.4, 0.5 M NaCl, 3 mM EDTA, 0.5 mg ml^-1 BSA, 0.01% P20, 25 °C; 1:1 model with mass transport limitations; KD = kd/ka. (In general: In SPR one partner is held on a chip, and binding of the other changes the refractive index at the surface.)

The target in assay [3] is ALK1-Fc ECD (Homo sapiens) (UniProt P37023). The following applies: cited from earlier work. The source holds these as a separate data set.

Like-named read-outs stand apart in the source and are kept apart here.

ALK1-Fc (ALK1 extracellular domain-Fc fusion protein), sequence (P37023 22-118): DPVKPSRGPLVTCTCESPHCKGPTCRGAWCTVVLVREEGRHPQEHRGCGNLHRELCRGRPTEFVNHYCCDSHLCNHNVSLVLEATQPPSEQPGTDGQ
ALK1-Fc ECD (Homo sapiens), sequence (P37023 22-118): as above
BMP10, sequence (O95393 317-424): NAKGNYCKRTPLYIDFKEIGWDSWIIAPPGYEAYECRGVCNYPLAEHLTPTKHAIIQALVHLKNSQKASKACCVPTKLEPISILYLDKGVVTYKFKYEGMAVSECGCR
BMP9, sequence (Q9UK05 320-429): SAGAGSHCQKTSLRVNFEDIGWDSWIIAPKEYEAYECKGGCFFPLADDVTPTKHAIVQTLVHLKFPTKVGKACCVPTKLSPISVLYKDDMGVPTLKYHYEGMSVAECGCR

BMP9 (from UniProt Q9UK05): the Kd in assay [1] is 0.0452 nM.

In turn, “BMP9 GF-domain (bone morphogenetic protein 9 growth factor domain) (from UniProt Q9UK05 320-429) (ligand)” registered a Kd in assay [2] of 0.0481 nM. On to BMP10 (from UniProt O95393), for which the Kd in assay [3] was 0.0103 nM. “BMP10 GF-domain (bone morphogenetic protein 10 growth factor domain) (from UniProt O95393 317-424) (ligand)” displayed a Kd in assay [2] of 0.0343 nM.

By Kd is commonly meant the equilibrium constant for the complex coming apart.

Source of the values: PMC7113306.
